This test concerns the target Human Hsp90β (human) (UniProt P08238). Description: SEC. A general note: In gel filtration, larger molecules generally elute earlier.

Chain of Human Hsp90β, P08238 1-724 (natural protein; other documents disagree on this pair) (P08238 whole entry): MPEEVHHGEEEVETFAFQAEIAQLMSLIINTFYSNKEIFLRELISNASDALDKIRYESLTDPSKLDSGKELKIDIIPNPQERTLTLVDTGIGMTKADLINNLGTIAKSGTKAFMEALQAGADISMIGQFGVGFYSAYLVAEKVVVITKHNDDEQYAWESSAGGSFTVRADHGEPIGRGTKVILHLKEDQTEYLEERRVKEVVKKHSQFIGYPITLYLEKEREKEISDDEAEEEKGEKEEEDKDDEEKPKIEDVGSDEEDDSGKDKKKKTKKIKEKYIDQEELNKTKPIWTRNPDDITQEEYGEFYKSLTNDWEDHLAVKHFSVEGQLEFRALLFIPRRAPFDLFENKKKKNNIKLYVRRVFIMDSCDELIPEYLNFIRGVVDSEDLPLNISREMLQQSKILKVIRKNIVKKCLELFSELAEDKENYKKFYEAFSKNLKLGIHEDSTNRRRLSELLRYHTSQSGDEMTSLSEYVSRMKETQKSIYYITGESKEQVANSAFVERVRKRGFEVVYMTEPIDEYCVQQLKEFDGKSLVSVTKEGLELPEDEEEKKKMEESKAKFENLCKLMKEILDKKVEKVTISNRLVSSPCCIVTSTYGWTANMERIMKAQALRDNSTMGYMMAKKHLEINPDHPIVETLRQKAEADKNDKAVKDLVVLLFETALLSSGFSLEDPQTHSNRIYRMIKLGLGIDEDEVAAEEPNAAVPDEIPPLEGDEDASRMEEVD

On to “Human Hsp90β, P08238 1-724 (natural protein; other documents disagree on this pair)”, for which the stoichiometry N was 2.

What is called stoichiometry N is the number of molecules, sites or subunits per partner or assembly.

The record behind these values is PMC2094093.
